One variant from IntAct's records for PubMed 17069809 can be followed below.

B1: Parabutoporin (Parabuthus schlechteri), P83312 (parent)
chain: FKLGSFLKKAWKSKLAKKLRAKGKEMLKDYAKGLLEGGSEEVPGQ

In the assay the parent is B1. Particulars: with kpca_human PRKCA.
For the variant S5A;S13A, the “effect of a mutation on the interaction” value is “disrupting interaction”.
